# Measured values taken from patent US20180298070A1, “PEPTIDE COMPOUND” (Takeda Pharmaceutical Company Limited, published 2018).
# Non-standard residues stand in square brackets, D forms with d. Groups on a side chain read outwards from the residue. Primed or numbered codes have the meaning given here. No end group written: not given here. *: point of attachment. NMeY = CN[C@@H](Cc1ccc(O)cc1)C(=O)O; αMeF = C[C@](N)(Cc1ccccc1)C(=O)O; dIva = CC[C@@](C)(N)C(=O)O; Iva = CC[C@](C)(N)C(=O)O; Hexanoyl = CCCCCC(=O)*; Aib = CC(C)(N)C(=O)O
# T1: human GLP-1R (human), P43220
# T1 chain: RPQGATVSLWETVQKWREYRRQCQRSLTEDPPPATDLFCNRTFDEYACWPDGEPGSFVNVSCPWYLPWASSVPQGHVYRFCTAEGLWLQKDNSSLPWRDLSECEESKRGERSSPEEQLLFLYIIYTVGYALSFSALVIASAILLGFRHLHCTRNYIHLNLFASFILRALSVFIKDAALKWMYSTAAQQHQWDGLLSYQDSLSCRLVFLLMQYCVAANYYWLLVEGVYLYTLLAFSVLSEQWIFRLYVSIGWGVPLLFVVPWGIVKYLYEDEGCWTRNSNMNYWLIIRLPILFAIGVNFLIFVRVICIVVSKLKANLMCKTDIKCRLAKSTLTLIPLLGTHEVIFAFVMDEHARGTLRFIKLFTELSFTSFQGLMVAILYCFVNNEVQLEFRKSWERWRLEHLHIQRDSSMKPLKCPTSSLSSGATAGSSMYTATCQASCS
# T2: human GIPR (human), P48546
# T2 chain: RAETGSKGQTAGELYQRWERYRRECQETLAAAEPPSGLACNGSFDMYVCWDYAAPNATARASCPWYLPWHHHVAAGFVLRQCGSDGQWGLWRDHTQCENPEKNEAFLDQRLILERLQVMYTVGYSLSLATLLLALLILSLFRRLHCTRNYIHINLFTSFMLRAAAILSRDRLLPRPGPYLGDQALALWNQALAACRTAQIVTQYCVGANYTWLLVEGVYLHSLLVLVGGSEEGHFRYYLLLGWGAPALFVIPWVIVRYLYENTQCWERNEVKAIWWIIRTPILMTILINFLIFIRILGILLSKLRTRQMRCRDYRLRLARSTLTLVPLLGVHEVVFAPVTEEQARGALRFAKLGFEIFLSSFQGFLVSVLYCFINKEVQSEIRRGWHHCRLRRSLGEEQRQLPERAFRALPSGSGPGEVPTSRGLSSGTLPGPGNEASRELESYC
# B1: Compound 174 (peptide)
# peptide: Y[Aib]EGTFISDYSK([PEG(2)-Hexanoyl])ALDRIHQQDFVNWLLAQRPSSGAPPPS
# modifications: ends and bridges not checked
# B2: Compound 82 (peptide)
# peptide: [NMeY][Aib]EGTFISDYSIALDR[Aib]AQ[Aib]NFVNWLLAQRPSSGAPPPSR
# modifications: ends and bridges not checked
# B3: Compound 85 (peptide)
# peptide: [NMeY][Aib]EGTFISDYSI[dIva]LDR[Aib]AQ[Aib]NFVNW[Iva]LAQRPSSGAPPPSR
# modifications: ends and bridges not checked
# B4: Compound 156 (peptide)
# peptide: Ac-Y[Aib]EGTFISDYSIALDR[Aib]HQ[Aib]NFVNW[Iva]LAQRPSSGAPPPSR
# modifications: ends and bridges not checked
# B5: Compound 98 (peptide)
# peptide: [NMeY][Aib]EGTFISDYSIALDR[Aib]AQ[Aib]N[αMeF]VNWLLAQRPSSGAPPPSR
# modifications: ends and bridges not checked
# B6: Compound 73 (peptide)
# peptide: [NMeY][Aib]EGTFISDYSIALDR[Aib]AQQD[αMeF]VNWLLAQRPSSGAPPPSR
# modifications: not fully specified (C-terminus); ends and bridges not checked
# B7: Compound 126 (peptide)
# peptide: Me-Y[Aib]EGTFISDYSIALDR[Aib]AQ[Aib]SFVNW[Iva]LAQRPSSGAPPPSR
# modifications: not fully specified (residue 1, C-terminus); ends and bridges not checked
# B8: Compound 142 (peptide)
# peptide: [NMeY][Aib]EGTFISDYSIALDRIHQ[Aib]NFVNWLLAQRPSSGAPPPSR
# modifications: not fully specified (N-terminus, C-terminus); ends and bridges not checked
# B9: Compound 138 (peptide)
# peptide: [NMeY][Aib]EGTFISDYSI[dIva]LDRIAQQSFVNWLLAQRPSSGAPPPSR
# modifications: not fully specified (N-terminus, C-terminus); ends and bridges not checked
# B10: Compound 74 (peptide)
# peptide: [NMeY][Aib]EGTFISDYSI[Iva]LDRIAQQD[αMeF]VNWLLAQRPSSGAPPPSR
# modifications: not fully specified (C-terminus); ends and bridges not checked
# B11: Compound 125 (peptide)
# peptide: Me-Y[Aib]EGTFISDYSIALDRIAQ[Aib]S[αMeF]VNW[Iva]LAQRPSSGAPPPSR
# modifications: not fully specified (residue 1, C-terminus); ends and bridges not checked
# B12: Compound 155 (peptide)
# peptide: Ac-Y[Aib]EGTFISDYSIALDRIAQ[Aib]S[αMeF]VNW[Iva]LAQRPSSGAPPPSR
# modifications: ends and bridges not checked
# B13: Compound 141 (peptide)
# peptide: [NMeY][Aib]EGTFISDYSIALDRIHQQD[αMeF]VNWLLAQRPSSGAPPPSR
# modifications: not fully specified (N-terminus, C-terminus); ends and bridges not checked
# B14: Compound 172 (peptide)
# peptide: Y[Aib]EGTFISDYSK([PEG(2)-Pal])ALDRIHQQDFVNWLLAQRPSSGAPPPS
# modifications: ends and bridges not checked
# B15: Compound 103 (peptide)
# peptide: [NMeY][Aib]EGTFISDYSI[dIva]LDR[dIva]AQ[dIva]NFVNWLLAQRPSSGAPPPSR
# modifications: not fully specified (N-terminus, C-terminus); ends and bridges not checked
# B16: Compound 144 (peptide)
# peptide: [NMeY][Aib]EGTFISDYSI[dIva]LDRIHQQDFVNWLLAQRPSSGAPPPSR
# modifications: not fully specified (N-terminus, C-terminus); ends and bridges not checked
# B17: Compound 76 (peptide)
# peptide: [NMeY][Aib]EGTFISDYSIALDRIAQ[Aib]N[αMeF]VNW[Iva]LAQRPSSGAPPPSR
# modifications: not fully specified (C-terminus); ends and bridges not checked
# B18: Compound 129 (peptide)
# peptide: Me-Y[Aib]EGTFISDYSIALDRIAQQSFVNWLLAQRPSSGAPPPS
# modifications: not fully specified (residue 1, C-terminus); ends and bridges not checked
# B19: Compound 123 (peptide)
# peptide: [NMeY][Aib]EGTFISDYSIALDRIAQ[Aib]DFVNW[Iva]LAQRPSSGAPPPSR
# modifications: ends and bridges not checked
# B20: Compound 133 (peptide)
# peptide: Me-Y[Aib]EGTFISDYSIALDRIAQQNFVNW[Iva]LAQRPSSGAPPPSR
# modifications: not fully specified (residue 1, C-terminus); ends and bridges not checked
# B21: Compound 135 (peptide)
# peptide: Me-Y[Aib]EGTFISDYSIALDRIAQ[Aib]D[αMeF]VNWLLAQRPSSGAPPPSR
# modifications: not fully specified (residue 1, C-terminus); ends and bridges not checked
# B22: Compound 83 (peptide)
# peptide: [NMeY][Aib]EGTFISDYSI[dIva]LDRIAQ[Aib]NFVNWLLAQRPSSGAPPPSR
# modifications: ends and bridges not checked
# B23: Compound 147 (peptide)
# peptide: Me-Y[Aib]EGTFISDYSI[dIva]LDRIHQ[Aib]NFVNW[Iva]LAQRPSSGAPPPSR
# modifications: not fully specified (residue 1, C-terminus); ends and bridges not checked
# B24: Compound 75 (peptide)
# peptide: [NMeY][Aib]EGTFISDYSIALDRIAQQS[αMeF]VNW[Iva]LAQRPSSGAPPPSR
# modifications: not fully specified (C-terminus); ends and bridges not checked
# B25: Compound 162 (peptide)
# peptide: Y[Aib]EGTVVSLYSI[Aib]LDKQAQ[Aib]EFVKWLLKGK([PEG(2)-Pal])
# modifications: ends and bridges not checked
# B26: Compound 81 (peptide)
# peptide: [NMeY][Aib]EGTFISDYSI[dIva]LDR[Aib]AQQD[αMeF]VNWLLAQRPSSGAPPPSR
# modifications: ends and bridges not checked
# B27: Compound 131 (peptide)
# peptide: Me-Y[Aib]EGTFISDYSI[dIva]LDRIAQQDFVNWLLAQRPSSGAPPPSR
# modifications: not fully specified (residue 1, C-terminus); ends and bridges not checked
# Target: T1, human GLP-1R (human), P43220
row,Binder,"Agonist activity (EC50, M)"
1,B1,> 1e-06 M
2,B2,1e-07 M
3,B3,> 1e-06 M
4,B4,> 1e-06 M
5,B5,> 1e-06 M
6,B6,> 1e-06 M
7,B7,> 1e-06 M
8,B8,> 1e-06 M
9,B9,> 1e-06 M
10,B10,> 1e-06 M
11,B11,> 1e-06 M
12,B12,> 1e-06 M
13,B13,> 1e-06 M
14,B14,> 1e-06 M
15,B15,> 1e-06 M
16,B16,> 1e-06 M
17,B17,> 1e-06 M
18,B18,> 1e-06 M
19,B19,> 1e-06 M
20,B20,> 1e-06 M
21,B21,> 1e-06 M
22,B22,1.7e-07 M
23,B23,> 1e-06 M
24,B24,> 1e-06 M
25,B25,> 1e-06 M
26,B26,> 1e-06 M
27,B27,> 1e-06 M

# Target: T2, human GIPR (human), P48546
row,Binder,"Agonist activity (EC50, M)"
1,B1,4.2e-12 M
2,B2,1.4e-12 M
3,B3,1.1e-12 M
4,B4,4.8e-12 M
5,B5,1.4e-12 M
6,B6,1.4e-12 M
7,B7,2.1e-12 M
8,B8,2.3e-12 M
9,B9,2.2e-12 M
10,B10,1.4e-12 M
11,B11,1.8e-12 M
12,B12,1.7e-12 M
13,B13,1.9e-12 M
14,B14,2e-12 M
15,B15,1.3e-12 M
16,B16,2.2e-12 M
17,B17,1.5e-12 M
18,B18,1.7e-12 M
19,B19,1.3e-12 M
20,B20,1.7e-12 M
21,B21,1.8e-12 M
22,B22,1.7e-12 M
23,B23,1.5e-12 M
24,B24,1.4e-12 M
25,B25,2.7e-10 M
26,B26,1.5e-12 M
27,B27,1.9e-12 M
